This assay deals with T1, SP62 (biotin-labelled peptide containing the 2F5 epitope sequence) (HIV-1, biotin-labelled (position not given)).
T1 construct: The results speak of the 'MPER peptide' or 'peptide'; also called 2F5多肽; gp41 MPER多肽
T1 peptide: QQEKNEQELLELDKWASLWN
In words: ELISA.

B1: A2 (light-chain shuffled clone, Fab on phage) (Fab, V domains shown)
VH: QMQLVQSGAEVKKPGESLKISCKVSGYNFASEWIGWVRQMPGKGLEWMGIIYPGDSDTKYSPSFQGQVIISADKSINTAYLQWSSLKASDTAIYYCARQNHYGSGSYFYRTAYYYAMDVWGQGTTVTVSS
VL: DIQLTQSPSSLSASLGDKVTITCRASQHIKKYLNWYQQKPGKAPKLLIYGALNLQSGVPSRFSGRGSGTDFTLTISSLQPEDFATYYCQQSYSTPFTFGPGTKVDIKR
As for B1, the binding result was “binds”.

Source of the values: patent CN102731650A (SICHUAN HUIYU PHARMACEUTICAL CO LTD, dated 2012).
